Test results from patent publication USRE41461E1, “Purification, composition and specificity of Heparinase I, II, and III from Flavobacterium heparinum” (Massachusetts Institute of Technology, priority 1992, dated 2010).
Entries after “also recorded” stand apart in the source; their conditions may differ. Like-named read-outs stand apart in the source and are kept apart here.

B1: Heparin lyase II: heparin lyase II (heparinase II, no EC number) purified to homogeneity from Flavobacterium heparinum (protein, UniProt C6XZB6 26-772, looked up)
Heparin and heparin-sulfate …: QTKADVVWKDVDGVSMPIPPKTHPRLYLREQQVPDLKNRMNDPKLKKVWADMIKMQEDWKPADIPEVKDFRFYFNQKGLTVRVELMALNYLMTKDPKVGREAITSIIDTLETATFKPAGDISRGIGLFMVTGAIVYDWCYDQLKPEEKTRFVKAFVRLAKMLECGYPPVKDKSIVGHASEWMIMRDLLSVGIAIYDEFPEMYNLAAGRFFKEHLVARNWFYPSHNYHQGMSYLNVRFTNDLFALWILDRMGAGNVFNPGQQFILYDAIYKRRPDGQILAGGDVDYSRKKPKYYTMPALLAGSYYKDEYLNYEFLKDPNVEPHCKLFEFLWRDTQLGSRKPDDLPLSRYSGSPFGWMIARTGWGPESVIAEMKVNEYSFLNHQHQDAGAFQIYYKGPLAIDAGSYTGSSGGYNSPHNKNFFKRTIAHNSLLIYDPKETFSSSGYGGSDHTDFAANDGGQRLPGKGWIAPRDLKEMLAGDFRTGKILAQGFGPDNQTPDYTYLKGDITAAYSAKVKEVKRSFLFLNLKDAKVPAAMIVFDKVVASNPDFKKFWLLHSIEQPEIKGNQITIKRTKNGDSGMLVNTALLPDAANSNITSIGGKGKDFWVFGTNYTNDPKPGTDEALERGEWRVEITPKKAAAEDYYLNVIQIADNTQQKLHEVKRIDGDKVVGVQLADRIVTFSKTSETVDRPFGFSVVGKGTFKFVMTDLLPGTWQVLKDGKILYPALSAKGDDGALYFEGTEGTYRFLR
B2: Heparin lyase III: heparin lyase III (heparitinase EC 4.2.2.8) purified to homogeneity from Flavobacterium heparinum (protein, UniProt Q59289 25-659, looked up)
Heparin-sulfate lyase: QSSSITRKDFDHINLEYSGLEKVNKAVAAGNYDDAAKALLAYYREKSKAREPDFSNAEKPADIRQPIDKVTREMADKALVHQFQPHKGYGYFDYGKDINWQMWPVKDNEVRWQLHRVKWWQAMALVYHATGDEKYAREWVYQYSDWARKNPLGLSQDNDKFVWRPLEVSDRVQSLPPTFSLFVNSPAFTPAFLMEFLNSYHQQADYLSTHYAEQGNHRLFEAQRNLFAGVSFPEFKDSPRWRQTGISVLNTEIKKQVYADGMQFELSPIYHVAAIDIFLKAYGSAKRVNLEKEFPQSYVQTVENMIMALISISLPDYNTPMFGDSWITDKNFRMAQFASWARVFPANQAIKYFATDGKQGKAPNFLSKALSNAGFYTFRSGWDKNATVMVLKASPPGEFHAQPDNGTFELFIKGRNFTPDAGVFVYSGDEAIMKLRNWYRQTRIHSTLTLDNQNMVITKARQNKWETGNNLDVLTYTNPSYPNLDHQRSVLFINKKYFLVIDRAIGEATGNLGVHWQLKEDSNPVFDKTKNRVYTTYRDGNNLMIQSLNADRTSLNEEEGKVSYVYNKELKRPAFVFEKPKKNAGTQNFVSIVYPYDGQKAPEISIRENKGNDFEKGKLNLTLTINGKQQLVLVP

Experiments:
[1] = Heparin lyase activity assay (change of absorbance at 232 nm), heparan sulfate as substrate; type: biochemical; conditions: for Unit/mg (specific activity): final GPC-HPLC purification step, acting on heparan sulfate; for average number of sites acted at in the heparan sulfate polymer: final level of depolymerization, 24 h; for initial activity in six buffers (Tris-HCl, sodium phosphate, HEPES, MOPS, TES, BTP-HCl): 50 mM buffer at optimum pH; for temperature for maximum activity: 50 mM sodium phosphate at optimum pH, 15-55° C.; for optimum temperature (summary): activity greater at higher temperatures but stability reduced; for Vmax: optimized conditions; for pH optimum for activity: on heparan sulfate; for specific activity: purified lyase, toward heparan sulfate
Procedure: The spectrophotometer was adjusted to the optimum temperature of the particular lyase being assayed. […] A measured quantity of lyase was added, bringing the final volume to 400 μl and the cuvette was gently mixed. The microcuvette was then immediately returned to the spectrophotometer and the change of absorbance at 232 nm was measured at 10 seconds intervals over 3 min. […] The specific activity was then calculated by dividing the micromoles of product produced per minute by the milligrams of protein in the cuvette. […] G., and Linhardt, R. J. (1989) Carbohydr. Res. 190, 219-233. Protein concentration was measured by the Bradford assay, Bradford, M. M. (1976) Anal. Biochem. 72, 248-254, based on a bovine serum albumin standard curve. […] The activities of each lyase (I acting on heparin, II acting on both heparin and heparan sulfate, and III acting on heparan sulfate) were then determined at different pH values. The buffer giving optimum activity for each heparin lyase was selected by testing buffers with buffering capacity near the pH optima calculated in the previous experiments. These buffers were: Tris-HCl, sodium phosphate, HEPES, MOPS, TES, and BTP-CHl. […] The heparin lyase assay solutions were made by diluting enzyme in 50 mM sodium phosphate buffer adjusted to the appropriate pH as previously described. Heparin lyase activity was determined in each buffer. Activity was assayed both immediately after addition to each buffer and following incubation for 24 h at 37° C. The salt concentration for optimum activity was investigated. Sodium chloride, potassium chloride, and sodium and potassium acetate were used to differentiate between ionic strength and specific ion affects. […] The temperature was adjusted in a temperature-regulated spectrophotometer and equilibrated for 10 min before the assay was started. Michaelis-Menten constants were determined using the optimized conditions. The final absorbance value for total depolymerization was divided by 20 to find a value that represented 5% reaction completion. The purified lyase preparations were diluted so that 5% of total depolymerization would be reached only at the end of a 3-min assay. The reaction velocities at specific molar concentrations for each lyase and their substrates were used for kinetic analysis using EZ-FIT hyperbolic curve-fitting program of […]. (1988) Anal. Biochem. 174, 437-447). Substrate solutions were prepared from 50 mg/ml heparin and 40 mg/ml for heparan sulfate stock solutions. […] The amount of purified lyase used was sufficient for complete depolymerization of heparin or heparan sulfate substrates within 30 min. The initial rate of depolymerization of each polysaccharide was measured, the reaction was then continued for 24 h, and the final level of polysaccharide depolymerization was assessed by measuring the final absorbance at 232 nm and expressed as percent activity.

[2] = Heparin lyase activity: effect of divalent metals and added salt, substrate specificity (each lyase on its substrates); type: biochemical; conditions: for effect of calcium on activity (increase): 10 mM calcium chloride, 50 mM BTP-HCl; for effect of added salt on activity: increasing salt concentration, 0-500 mM
Procedure: The spectrophotometer was adjusted to the optimum temperature of the particular lyase being assayed. A 700 μl quartz microcuvette containing 400 μg of substrate in 50 mM sodium phosphate buffer (containing 100 mM sodium chloride for heparin lyase I) was thermally equilibrated. A measured quantity of lyase was added, bringing the final volume to 400 μl and the cuvette was gently mixed. The microcuvette was then immediately returned to the spectrophotometer and the change of absorbance at 232 nm was measured at 10 seconds intervals over 3 min. The activity was measured from the change of absorbance/unit time using an extinction coefficient of 3800 M^−1 for products. The specific activity was then calculated by dividing the micromoles of product produced per minute by the milligrams of protein in the cuvette. The molecular weights used for heparin, heparan sulfate, and the chondroitin sulfates were 14,000, 20,000 and 25,000, respectively, Rice, K. G., and Linhardt, R. J. (1989) Carbohydr. Res. 190, 219-233. Protein concentration was measured by the Bradford assay, Bradford, M. M. (1976) Anal. Biochem. 72, 248-254, based on a bovine serum albumin standard curve.
BTP-HCl buffer (50 mM) was prepared containing either 10 mM calcium chloride, 10 μM or 1 mM copper (II) chloride, 10 μM and 1 mM mercury (II) chloride, and 1 mM zinc (II) chloride. Each solution was adjusted to the optimum pH for the lyase being tested, and the activity of the heparin lyases was measured in the presence and absence of divalent metals.
The salt concentration for optimum activity was investigated. Sodium chloride, potassium chloride, and sodium and potassium acetate were used to differentiate between ionic strength and specific ion affects. Added salt concentrations varied between 0 and 500 mM and were prepared in 50 mM sodium phosphate buffer after which the pH was adjusted to each enzyme's optimum and the heparin lyase activity was measured.
Each heparin lyase was added to a solution of complex polysaccharides (1 mg/ml) under optimized assay conditions, and the reaction was monitored at 232 nm for 30 min. The amount of purified lyase used was sufficient for complete depolymerization of heparin or heparan sulfate substrates within 30 min. The initial rate of depolymerization of each polysaccharide was measured, the reaction was then continued for 24 h, and the final level of polysaccharide depolymerization was assessed by measuring the final absorbance at 232 nm and expressed as percent activity.

[3] = Isoelectric focusing on agarose gel; type: physicochemical; conditions: agarose IEF
Procedure: IEF gel electrophoresis was run on pre-cast agarose gels (85×100 mm). Two electrode wicks were wetted with 1M phosphoric acid (anolyte) and 1M sodium hydroxide (catholyte). Electrophoresis was at 5 watts for 5 min, then at 10 watts for 1 h until the voltage was constant at 1200 V. The gel was immediately fixed in 15% aqueous trichloroacetic acid, blotted and rinsed with water, dried overnight, stained by using Coomassie G-250, and destained.

[4] = Temperature stability of lyase activity; type: physicochemical; conditions: for time in which 80% of activity was lost: protein 650 ng/ml
Procedure: Lyase assay stock solutions were prepared in the appropriate buffer and placed in water baths at the following temperatures: heparin lyase I at 30° C., heparin lyase II at 35° C., and heparin lyase III at both 35° and 40° C. […]

[5] = Activity remaining after incubation in buffers for 24 h at 37° C.; type: physicochemical
Procedure: The buffer giving optimum activity for each heparin lyase was selected by testing buffers with buffering capacity near the pH optima calculated in the previous experiments. These buffers were: Tris-HCl, sodium phosphate, HEPES, MOPS, TES, and BTP-CHl. Each buffer was prepared at 50 mM, and its pH was adjusted with hydrochloric acid or sodium hydroxide to 6.9 for heparin lyase II acting on heparin, 7.15 for heparin lyase I, 7.3 for heparin lyase II acting on heparan sulfate, and 7.6 for heparin lyase III. The heparin lyase assay solutions were made by diluting enzyme in 50 mM sodium phosphate buffer adjusted to the appropriate pH as previously described. Heparin lyase activity was determined in each buffer. Activity was assayed both immediately after addition to each buffer and following incubation for 24 h at 37° C.

[6] = heparan sulfate, II: 35° C., pH 6.9, III: 35° C., pH 7.6, value ± standard error, read-out: Km(app)
[7] = heparan sulfate, value ± standard error
[8] = with heparan sulfate, read-out: Km (Michelis-Menton constant, summary)

Row | Molecule | Unit/mg (specific activity) [1] [Unit/mg] | average number of sites acted at in the heparan sulfate polymer [1] [sites] | initial activity in six buffers (Tris-HCl, sodium phosphate, HEPES, MOPS, TES, BTP-HCl) ([1]; heparan sulfate) | temperature for maximum activity ([1]; heparan sulfate) [°C] | Km [1, 6] [µM] | optimum temperature (summary) ([1]; heparan sulfate) [°C] | Vmax [1, 7] [μmol/min mg protein] | pH optimum for activity [1] | specific activity [1] [units/mg] | Km (Michelis-Menton constant, summary) ([1]; with heparan sulfate) [mg/mL] | V(max) (summary) ([1]; with heparan sulfate) | Km [1, 8] [µM] | substrates acted on [2] | effect of calcium on activity (increase) [2] | effect of added salt on activity [2] | pI (isoelectric point) [3] | other results
1 | B1 | 36.5 | 25 | marked reduction of activity in MOPS, TES, and HEPES | 40 | 11.2 ± 2.18 | 35 | 28.6 ± 1.26 | 6.9 | 36.5 | 0.869 | 46.95 | 43.4 | act on both heparin and heparan sulfate | dramatically reduced | decrease in activity; also recorded: decreases | around 8.9 | initial rate on heparan sulfate relative to heparin [1]: 1.7 times; effect of divalent metal ions on activity (all metals tested) ([2]; acting on both heparin and heparan sulfate): inhibition by all of the metals tested except for 10 μM copper; effect of added salt on activity ([2]; listed as heparinase II): not observed; pI (isoelectric point) ([3]; listed as heparin lyase II): 8.9-9.1; activity retained ([4]; 25 h at 35° C., protein 1-2 μg/ml, on both heparin and heparan sulfate): 70%; retention of activity after incubation ([5]; MOPS, TES, and HEPES, toward both heparin and heparan sulfate): 30-70%
2 | B2 | 63.5 | 20 | only slight differences in activity | 45 | 29.4 ± 3.16 | 35 | 141 ± 3.88 | 7.6 | 63.5 | 0.780 | 277.01 | 110 | acts only on heparan sulfate | 20% | decrease in activity; also recorded: decreases | ~9.2 | effect of copper on activity ([2]; 10 μM copper (II) chloride): unaffected; effect of mercury on activity ([2]; 10 μM mercury (II) chloride): unaffected; effect of copper on activity ([2]; 1 mM copper (II) chloride): inhibited; effect of mercury on activity ([2]; 1 mM mercury (II) chloride): inhibited; effect of zinc on activity ([2]; 1 mM zinc (II) chloride): inhibited; effect of added salt on activity ([2]; listed as heparinase III): not observed; pI (isoelectric point) ([3]; listed as heparin lyase III): 9.9-10.1; time in which 80% of activity was lost ([4]; 35° C.): 3.5 h; time in which 80% of activity was lost ([4]; 40° C.): 0.5 h; retention of activity after incubation ([5]; MOPS and HEPES): 15-30%
